Experimental findings from article PMC12666738 are described below.

Substitutions are numbered along the chain they refer to. In names and notes the source's numbering stands.

Experiment [1] addresses mRFP-tagged CASK I672V (human) (UniProt O14936). The experiment is described as follows: co-IP; HEK293T cells cotransfected, lysed in RIPA buffer 24 h after transfection; mRFP-tagged CASK precipitated with magnetic RFP-Trap beads, 2 h at 4°C, five washes in RIPA; Western blot. For orientation: In western blotting, separated proteins are transferred to a membrane and probed.

The target of experiment [2] is T1, GST-tagged C-terminal domain of Nrxn1β, Q63373.
T1 chain: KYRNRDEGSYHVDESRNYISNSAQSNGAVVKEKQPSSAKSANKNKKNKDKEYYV
The experiment is described as follows: pull-down. Particulars: chain shown with the change; n = 4; His6-signals normalized to GST-signals derived from the same blot; parent: est. 2.9; read off a plot.

In experiment [3] the target is T2, GST-tagged C-terminal domain of CNTNAP2, Q9UHC6.
T2 chain: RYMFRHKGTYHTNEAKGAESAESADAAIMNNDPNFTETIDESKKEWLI
The experiment is described as follows: pull-down. Conditions: chain shown with the change; n = 4; His6-signals normalized to GST-signals derived from the same blot; parent: est. 3.1; read off a plot.

Experiment [4] concerns the target T3, GST-tagged C-terminal domain of SALM1, Q9ULH4.
T3 chain: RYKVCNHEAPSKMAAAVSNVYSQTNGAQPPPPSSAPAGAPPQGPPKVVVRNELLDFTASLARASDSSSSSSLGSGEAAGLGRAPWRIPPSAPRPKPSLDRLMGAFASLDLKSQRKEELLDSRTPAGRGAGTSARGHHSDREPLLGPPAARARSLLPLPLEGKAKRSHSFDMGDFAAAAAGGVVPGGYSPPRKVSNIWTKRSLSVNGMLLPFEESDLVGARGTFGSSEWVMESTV
The experiment is described as follows: pull-down. Conditions: chain shown with the change; n = 4; His6-signals normalized to GST-signals derived from the same blot; parent: est. 0.85; read off a plot.

The molecule “HA-tagged Neurexin-1β (from UniProt Q63373 47-468) (natural protein)” had a reduction of bound Nrxn1β against CASK WT in experiment [1] of 50%.

B1: His6-SUMO-tagged CASK PSG supramodule WT, O14936-2 G521V (protein)
chain: MADDDVLFEDVYELCEVIGKGPFSVVRRCINRETGQQFAVKIVDVAKFTSSPGLSTEDLKREASICHMLKHPHIVELLETYSSDGMLYMVFEFMDGADLCFEIVKRADAGFVYSEAVASHYMRQILEALRYCHDNNIIHRDVKPHCVLLASKENSAPVKLGGFGVAIQLGESGLVAGGRVGTPHFMAPEVVKREPYGKPVDVWGCGVILFILLSGCLPFYGTKERLFEGIIKGKYKMNPRQWSHISESAKDLVRRMLMLDPAERITVYEALNHPWLKERDRYAYKIHLPETVEQLRKFNARRKLKGAVLAAVSSHKFNSFYGDPPEELPDFSEDPTSSGLLAAERAVSQVLDSLEEIHALTDCSEKDLDFLHSVFQDQHLHTLLDLYDKINTKSSPQIRNPPSDAVQRAKEVLEEISCYPENNDAKELKRILTQPHFMALLQTHDVVAHEVYSDEALRVTPPPTSPYLNGDSPESANGDMDMENVTRVRLVQFQKNTDEPMGITLKMNELNHCIVARIMHVGMIHRQGTLHVGDEIREINGISVANQTVEQLQKMLREMRGSITFKIVPSYRTQSSSCERDSPSTSRQSPANGHSSTNNSVSDLPSTTQPKGRQIYVRAQFEYDPAKDDLIPCKEAGIRFRVGDIIQIISKDDHNWWQGKLENSKNGTAGLIPSPELQEWRVACIAMEKTKQEQQASCTWFGKKKKQYKDKYLAKHNAVFDQLDLVTYEEVVKLPAFKRKTLVLLGAHGVGRRHIKNTLITKHPDRFAYPIPHTTRPPKKDEENGKNYYFVSHDQMMQDISNNEYLEYGSHEDAMYGTKLETIRKIHEQGLIAILDVEPQALKVLRTAEFAPFVVFIAAPTITPGLNEDESLQRLQKESDILQRTYAHYFDLTIINNEIDETIRHLEEAVELVCTAPQWVPVSWVY
Take B1: the response in experiment [2] worked out at 0.9; in experiment [3], 1.5; in experiment [4], 0.7.

B2: His6-SUMO-tagged CASK PSG supramodule WT, O14936-2 Y723C (protein)
chain: MADDDVLFEDVYELCEVIGKGPFSVVRRCINRETGQQFAVKIVDVAKFTSSPGLSTEDLKREASICHMLKHPHIVELLETYSSDGMLYMVFEFMDGADLCFEIVKRADAGFVYSEAVASHYMRQILEALRYCHDNNIIHRDVKPHCVLLASKENSAPVKLGGFGVAIQLGESGLVAGGRVGTPHFMAPEVVKREPYGKPVDVWGCGVILFILLSGCLPFYGTKERLFEGIIKGKYKMNPRQWSHISESAKDLVRRMLMLDPAERITVYEALNHPWLKERDRYAYKIHLPETVEQLRKFNARRKLKGAVLAAVSSHKFNSFYGDPPEELPDFSEDPTSSGLLAAERAVSQVLDSLEEIHALTDCSEKDLDFLHSVFQDQHLHTLLDLYDKINTKSSPQIRNPPSDAVQRAKEVLEEISCYPENNDAKELKRILTQPHFMALLQTHDVVAHEVYSDEALRVTPPPTSPYLNGDSPESANGDMDMENVTRVRLVQFQKNTDEPMGITLKMNELNHCIVARIMHGGMIHRQGTLHVGDEIREINGISVANQTVEQLQKMLREMRGSITFKIVPSYRTQSSSCERDSPSTSRQSPANGHSSTNNSVSDLPSTTQPKGRQIYVRAQFEYDPAKDDLIPCKEAGIRFRVGDIIQIISKDDHNWWQGKLENSKNGTAGLIPSPELQEWRVACIAMEKTKQEQQASCTWFGKKKKQYKDKYLAKHNADLVTCEEVVKLPAFKRKTLVLLGAHGVGRRHIKNTLITKHPDRFAYPIPHTTRPPKKDEENGKNYYFVSHDQMMQDISNNEYLEYGSHEDAMYGTKLETIRKIHEQGLIAILDVEPQALKVLRTAEFAPFVVFIAAPTITPGLNEDESLQRLQKESDILQRTYAHYFDLTIINNEIDETIRHLEEAVELVCTAPQWVPVSWVY
Consider B2, for which the response in experiment [2] was found to be 0.9; in experiment [3], 0.45; in experiment [4] it was 0.15.

B3: His6-SUMO-tagged CASK PSG supramodule WT, O14936-2 P673L (protein)
chain: B2 chain with P673L, C723Y
Consider B3, for which the response in experiment [2] was determined as 1; in experiment [3] it was 0.45; in experiment [4], 0.15.
